The star is where a group is joined. Biotin = O=C1N[C@H]2[C@H](CS[C@H]2CCCCC(=O)*)N1; Ttds = NCCCOCCOCCOCCCNC(=O)CCC(=O)*
Target: recombinant GC (Cerezyme, Genzyme Therapeutics) (UniProt P04062)
Assay: cell-based or functional assay

Binder	half-life of GC activity at 37° C. (stabilization assay)	GC enzyme activity
{Biotin-Ttds}-LREDDEAMDKAYQQKLFVTHTVDE-OH [3xD Helix 5 peptide]	24 h	
{Biotin-Ttds}-LREIIEAMLKAYQQKLFVTHTVDE-OH [Helix 5 peptide (LIMP-2-derived, L152-E175)]	48 h	5 times
